Experimental data published in US20100292147A1 (UNIVERSITY OF UTAH RESEARCH FOUNDATION, published 2010).
Blank lines part the entries; values can stand above or below the binder they belong to. No end group written: not given here.

Tests used:
[1] = target: T1, HBD wt peptide (hepcidin binding domain of ferroportin with two arginines at each end); test: binding to HBD, data not shown
T1 construct: Synthetic peptide; also called I-HBD (when immobilized on agarose beads or 96-well plates); HBD-beads
T1 peptide: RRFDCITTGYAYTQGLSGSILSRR

[2] = target: T1, HBD wt peptide (hepcidin binding domain …); test: competition with sub saturating ^125I-hepcidin (0.6 ug/ml) for bead-immobilized HBD (I-HBD), 18 h at 37 C, gamma counting (FIG. 2B)
Protocol: FIGS. 2A-C illustrates that the binding of ¹²⁵I-hepcidin to HBD is specific and temperature dependent. In FIG. 2A peptides (HBD, scrambled-HBD or mutant (C326Y HBD) were conjugated to beads and ¹²⁵I-hepcidin was added to the bead-immobilized peptides (I-HBD) for 18 hours at 37° C. (black bars) or 4° C. (grey bars). The beads were washed and the amount of ¹²⁵I-hepcidin bound to the I-HBD was determined. In FIG. 2B a sub saturating concentration of ¹²⁵I-hepcidin (0.6 μg/ml) was incubated with I-HBD for 18 hours at 37° C. in the presence or absence of known concentrations of either hepcidin 25 (Hep 25-open circles) or hepcidin 25 synthesized with a tyrosine substitution at position M21 (Y-Hep 25) and the amount of radioactivity bound to the I-HBD determined. In FIG. 2C sub saturating levels of ¹²⁵I-hepcidin were incubated with I-HBD at different temperatures.
HBD peptides were immobilized by covalently attaching them to agarose beads. Immobilization was performed using AminoLink Plus Immobilization Kit (Pierce) following the manufacturer's instructions. 1.0 mg of HBD peptide was used per 2.0 ml of AminoLink beads. To measure hepcidin concentrations in biological fluids, samples were mixed with a defined concentration of ¹²⁵I-hepcidin and then added to HBD conjugated beads. […] The fluid was removed and the radioactivity bound to beads was determined by gamma counting (Perkin/Elmer).

- binding result [1]: no binding
B1: Hep20 (hepcidin 20, hepcidin lacking the five amino terminal amino acids) (peptide)
peptide: ICIFCCGCCHRSKCGMCCKT
modifications: ends and bridges not checked; also: native intramolecular disulfides, pairing not given here

- apparent K [2]: ~200 nM
B2: hepcidin (hepcidin 25, native non-radioactive hepcidin) (peptide, UniProt P81172 60-84, looked up)
peptide: DTHFPICIFCCGCCHRSKCGMCCKT
modifications: ends and bridges not checked; also: native intramolecular disulfides, pairing not given here
notes: mature; Synthetic peptide; also called Hep 25; Hep25
